Measurements as given in PMC8230665, “Specificity of Human Sulfiredoxin for Reductant and Peroxiredoxin Oligomeric State” (Antioxidants, 2021).

T1: hyperoxidized wild-type human peroxiredoxin 1, decameric (Prx1-SO2H) (human, UniProt Q06830 1-199, cysteine sulfinic acid at the peroxidatic cysteine (CP-SO2H; CP is Cys52))
T1 construct: peroxiredoxin 1 (Prx1), human; also called hyperoxidized Prx1; copies: 10
T1 sequence (looked up): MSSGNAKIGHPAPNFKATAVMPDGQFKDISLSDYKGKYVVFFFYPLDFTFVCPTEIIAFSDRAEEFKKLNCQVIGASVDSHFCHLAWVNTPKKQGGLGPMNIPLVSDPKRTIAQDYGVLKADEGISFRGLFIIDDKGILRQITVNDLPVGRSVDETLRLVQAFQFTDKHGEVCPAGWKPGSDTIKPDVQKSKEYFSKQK


Legend:
[1] = molecular target: the molecule itself; assay: crystal structure; disulfide-bonded Srx-Prx1 complex (Cys99 of Srx to Cys52 of Prx1); hanging drop, 100 mM citric acid pH 4.5, 26% PEG 400, 100 mM CsCl; 3.0 Å, space group C2
[2] = molecular target: T1, hyperoxidized wild-type human …; assay: fluorescence polarisation; Oregon Green 514-labelled Srx variants, decameric Prx1-SO2H added; MgCl2 omitted to prevent turnover; curves fit to a single site, saturable model; details: both partners purified
[3] = molecular target: the molecule itself; assay: SEC-MALS; 2 mg/mL (86-93 µM) Prx in 50 mM HEPES pH 7.5, 100 mM NaCl; TSK Gel 4000 SW; reduced samples with 10 mM DTT, oxidized samples with 1.2 equivalents of H2O2

Binder	stoichiometry N [3]	further results
human peroxiredoxin 1 variant C71S, C83V, C173S (decamer) (enzyme, Cys52 disulfide-bonded to Cys99 of Srx (made through a Cys52-S-TNB mixed disulfide), peroxiredoxin 1 (Prx1), human; Only the peroxidatic Cys52 is left; C83V was put in to stabilise the decamer; also called Prx1 variant; Prx1 C83V mutant; source: purified; treated with DTNB, then titrated with Srx; copies: 10) MSSGNAKIGHPAPNFKATAVMPDGQFKDISLSDYKGKYVVFFFYPLDFTFVCPTEIIAFSDRAEEFKKLNSQVIGASVDSHFVHLAWVNTPKKQGGLGPMNIPLVSDPKRTIAQDYGVLKADEGISFRGLFIIDDKGILRQITVNDLPVGRSVDETLRLVQAFQFTDKHGEVSPAGWKPGSDTIKPDVQKSKEYFSKQK	–	stoichiometry N [1]: 10
Oregon Green 514-labelled human sulfiredoxin Tyr128Ala (enzyme, Oregon Green 514 label (position not given), sulfiredoxin (Srx), human; The unlabelled variant was used in the HPLC activity assay; also called Srx Y128A; source: site-directed mutant (QuikChange), purified) not shown	–	Kd [2]: 12.5 ± 1.2 µM
human peroxiredoxin 3 Ser139Glu/Ala142Glu, engineered dimer (enzyme, UniProt P30048 62-256, looked up, peroxiredoxin 3 (Prx3), mitochondrial, human; Vector pET15b; His tag removed with thrombin; In the repair assay the protein was about 20% hyperoxidized; also called Prx3-S139E/A142E; Prx3-EE; source: E. coli BL21Gold (DE3), purified (HisPur Cobalt, Q-Sepharose, Superdex 200); not shown: His tag, N-terminal, cleaved) APAVTQHAPYFKGTAVVNGEFKDLSLDDFKGKYLVLFFYPLDFTFVCPTEIVAFSDKANEFHDVNCEVVAVSVDSHFEHLEWINTPRKNGGLGHMNIALLSDLTKQISRDYGVLLEGSGLALRGLFIIDPNGVIKHLSVNDLPVGRSVEETLRLVKAFQYVETHGEVCPANWTPDSPTIKPSPAASKEYFQKVNQ	2	–
human peroxiredoxin 3, wild type (enzyme, UniProt P30048 62-256, looked up, peroxiredoxin 3 (Prx3), mitochondrial, human; In the repair assay the protein was hyperoxidized (CP-SO2H); also called Prx3; WT Prx3; copies: 12) APAVTQHAPYFKGTAVVNGEFKDLSLDDFKGKYLVLFFYPLDFTFVCPTEIVAFSDKANEFHDVNCEVVAVSVDSHFSHLAWINTPRKNGGLGHMNIALLSDLTKQISRDYGVLLEGSGLALRGLFIIDPNGVIKHLSVNDLPVGRSVEETLRLVKAFQYVETHGEVCPANWTPDSPTIKPSPAASKEYFQKVNQ	12	–
human peroxiredoxin 2, wild type (enzyme, UniProt P32119 1-198, looked up, peroxiredoxin 2 (Prx2), human; Stored in the disulfide-bonded form; run on SEC-MALS reduced (10 mM DTT) or oxidized (1.2 equivalents of H2O2); In the repair assay the protein was hyperoxidized (CP-SO2H); also called Prx2; WT Prx2; copies: 10) MASGNARIGKPAPDFKATAVVDGAFKEVKLSDYKGKYVVLFFYPLDFTFVCPTEIIAFSNRAEDFRKLGCEVLGVSVDSQFTHLAWINTPRKEGGLGPLNIPLLADVTRRLSEDYGVLKTDEGIAYRGLFIIDGKGVLRQITVNDLPVGRSVDEALRLVQAFQYTDEHGEVCPAGWKPGSDTIKPNVDDSKEYFSKHN	10	–
human peroxiredoxin 2 Thr82Glu, engineered dimer (enzyme, UniProt P32119 1-198, looked up, peroxiredoxin 2 (Prx2), human; Vector pET19pp; His tag removed with HRV-3C protease; Section 2.6 prints the mutation as T83E; In the repair assay the protein was about 80% hyperoxidized; also called Prx2-T82E; Prx2-E; source: E. coli BL21Gold (DE3), purified (HisPur Cobalt, Q-Sepharose, Superdex 200); not shown: His tag, N-terminal, cleaved) MASGNARIGKPAPDFKATAVVDGAFKEVKLSDYKGKYVVLFFYPLDFTFVCPTEIIAFSNRAEDFRKLGCEVLGVSVDSQFEHLAWINTPRKEGGLGPLNIPLLADVTRRLSEDYGVLKTDEGIAYRGLFIIDGKGVLRQITVNDLPVGRSVDEALRLVQAFQYTDEHGEVCPAGWKPGSDTIKPNVDDSKEYFSKHN	2	–
Oregon Green 514-labelled human sulfiredoxin (Srx), wild type (enzyme, Oregon Green 514 label (position not given), sulfiredoxin (Srx), human; also called WT Srx; Oregon Green labeled Srx) not shown	–	Kd [2]: 7 ± 1.5 µM
